Test [1] addresses T1, IL-18 (Homo sapiens, UniProt Q14116).
T1 sequence (Q14116 37-193): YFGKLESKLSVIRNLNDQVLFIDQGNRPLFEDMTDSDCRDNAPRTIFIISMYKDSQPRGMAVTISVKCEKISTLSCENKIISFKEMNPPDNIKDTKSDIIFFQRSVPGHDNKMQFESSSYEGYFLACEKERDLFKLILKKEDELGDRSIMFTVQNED
In words: KD calculation by titration of IL-18 with IL-18BP, free IL-18 ELISA (IL-18BP capture). It counts as binding. Also noted: purchased. To be noted: read-out: KD between human IL-18 and IL-18BP by titration. The protocol:
Microplate wells are coated with an appropriate volume phosphate buffer saline solution containing recombinant human IL-18BP (r-hIL-18BP) as shown in SEQ ID NO 7, and less than 30% of N-terminal and/or C-terminal deletion variants of IL-18BP. A description of the r-hIL-18BP is provided in section 6.6.1 below. A description of the purification protocol is provided in section 6.6.2. Plates are incubated for a period of time at 4° C. and then stabilized with a blocking buffer containing bovine serum albumin or other appropriate blocking agents. Once the reaction is finished, microplates are sealed and stored at 4° C. until used for detection of free IL-18. Microplates can also be dried in a stabilizing solution allowing storage at room temperature and then be reconstituted by hydration when needed for assay.
As an example, for a final reaction volume of 100 μl, dispense first 80 μl of biotin/antibody conjugate. Samples or biological fluids containing free IL-18 are tested with the IL-18BP coated microplates. After that, 20 μl sample volume containing biological fluid or standard is dispensed per microplate well. […] The resulting reactions are then monitored with a microplate reader at an appropriate nanometer wavelength for absorbance or fluorescence of the produced reagent. […]
• KD was calculated based on the following formula: KD=[free IL-18]×[free IL-18BP]/[IL-18/IL-18BP complex] […]

For test [2], the target named is T2, IL-18 (Mus musculus, UniProt P70380).
T2 sequence (P70380 36-192): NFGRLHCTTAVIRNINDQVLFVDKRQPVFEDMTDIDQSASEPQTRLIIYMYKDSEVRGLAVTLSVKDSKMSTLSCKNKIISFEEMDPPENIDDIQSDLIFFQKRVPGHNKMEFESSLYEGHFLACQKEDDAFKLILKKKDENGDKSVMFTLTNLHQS
In words: Dissociation constant (Kd) used for dose selection, mouse. It counts as binding. As to the method:
(§1) No validated animal model has been described for this condition. In the collagen-induced arthritis murine model the active dose for r-hIL-18BP administered intraperitoneally (i.p.) was determined to be 1 mg/Kg body weight. […] Altogether the expected pharmacologically active dose for a “humanized mice” treated by s.c. route with r-hIL-18BP is round 4.85 mg/kg. […] Although the guidance was initially written for extrapolating animal doses to healthy volunteers, its principles can be applied also to patients. […] Those doses will be likely also ineffective in AoSD patients considering that blood levels of IL-18 in AoSD are higher than those reported in the two above mentioned conditions.

A further test has as its system RA and Pso patients. Kind of test: Previous human studies with r-hIL-18BP in RA and Pso patients. It counts as in vivo. The following applies: 20 mg 3 times a week. As to the method:
as §1

Test [3] concerns the target T1, IL-18. In words: New BIAcore setup: IL-18BP bound to chip, affinity to IL-18. The class given is binding. More on the design: purchased. To be noted: IL-18BP bound to BIAcore chip. The source says:
Following the above KD results obtain by titration, we tested the binding affinity of IL-18BP to IL-18 with a simpler BIAcore setup consisting of binding IL-18BP to the BIAcore chip and then testing its affinity to IL-18. The method setup is the contrary of Kim et al 2000 ^8, who bound IL-18 to the BIAcore chip with a monoclonal antibody and then tested the affinity of the complex antibody-IL-18 to IL-18BP.
On the technique in general: Surface plasmon resonance follows binding to a sensor surface in real time, without labels.

The target of test [4] is T1, IL-18. The following applies: cited from earlier work.
Another test has as its system G-CSF. Kind of test: G-CSF in BALF by ELISA, exacerbation/tobacco smoke mouse model. It counts as in vivo. As to the method:
Mice received either vehicle (PBS) or IL-18BP. IL-18BP was given subcutaneously to 3 groups of animals respectively at 1, 3 or 10 mg/kg 2 h prior to the initial tobacco smoke exposure from Day 1 to Day 4. Mice received orally either vehicle or dexamethasone (10 mg/kg) 1 h prior to each twice daily exposure. Mice received by intranasal administration either the vehicle or Polyinosinic:polycytidylic acid (2 mg/kg) 2 h prior to the initial air or tobacco smoke exposure on Day 4 to induce lung inflammation exacerbation. Tobacco smoke exposure was performed during the morning and afternoon as follow: Day 1 for 15 min, Day 2 for 25 min, Day 3 for 30 min and Day 4 for 30 min.
Following the above treatments, animals were terminally anaesthetised on Day 5. After that, a blood sample was taken via the sub-clavian artery (plasma) and the animals were bronchoalveloar lavaged with 3×0.4 ml of PBS for further cellular and cytokine/mediator analysis. Bronchoalveolar lavage supernatants were stored at −80° C. for cytokine/mediator analysis. Cells recovered from the BALF were counted using the Sysmex cell counter.
G-CSF is well acknowledged as key cytokine stimulating the survival, proliferation, differentiation, and function of neutrophil precursors and mature neutrophils. […] The presence of G-CSF in the BALF was monitored with a commercially available ELISA kit.

Where “and” joins values, the source holds several entries; their conditions need not be identical. Equal values may be shown once. Read-outs that look alike come from different tables or passages of the source.

B1: IL-18BP: soluble glycoprotein of 164 amino acids produced from a Chinese Hamster Ovary cell line; isoform a, SEQ ID NO 7 (protein, listed as Homo sapiens)
chain: TPVSQTTTAATASVRSTKDPCPSQPPVFPAAKQCPALEVTWPEVEVPLNGTLSLSCVACSRFPNFSILYWLGNGSFIEHLPGRLWEGSTSRERGSTGTQLCKALVLEQLTPALHSTNFSCVLVDPEQVVQRHVVLAQLWAGLRATLPPTQEALPSSHSSPQQQG
modifications: CHO glycosylation; MISC_FEATURE - Human interleukin-18 binding protein isoform a
On to B1, for which the Kd with IL-18 [1] (PBS supplemented by 5% BSA diluent) was 0.035 nM; in the test with IL-18 [1] (Serum diluent), 0.05 nM and ~0.05 nM; in the test with IL-18 [2], 0.4 nM; with IL-18 [3], 0.02 to 0.03 nM; with IL-18 [4] (BIAcore measurements, read-out: KD reported in the literature (Kim et al 2000)), 0.4 nM; with IL-18 [4] (IL-18-IL-18BP complex, stoichiometry 1:1, read-out: Dissociation constant KD as calculated by Kim et al 2000), 0.4 nM. In addition, the clinical efficacy result with RA and Pso patients is “no efficacy”. Further, in the test with IL-18 [3], the Ka is 5.3 ± 1.2 10^+5/MS. Besides, the “G-CSF release in the lung airways (BALF)” value in the test with G-CSF (IL-18BP s.c., day 5) is recorded as “mitigates G-CSF release in the lung airways”; with G-CSF (three tested doses 1, 3 or 10 mg/kg s.c.), “statistically relevant effect”.

Source of the values: patent US12679888B2, “IL-18 binding protein (IL-18BP) and antibodies for treating inflammatory diseases” (AB2 BIO SA, priority 2015, dated 2026).
